Consider five substances from PMC6692582.

Assay [1] addresses N-terminal NanoLuc-tagged VEGFR2 (wild type) (UniProt P35968). Briefly: FRET or BRET; NanoBRET kinetics, membranes from NanoLuc-VEGFR2 HEK293T cells (10 μg per well); five concentrations of fluorescent ligand (1–20 nM); every 30 s for 90 min at 37°C; KD kinetic (koff/kon). For orientation: In BRET a luciferase serves as donor, and the signal depends on an acceptor being close.
For assay [2] the target is unchanged. The description is as above. The source holds these as a separate data set.
Assay [3] has the same target. Kind of assay: FRET or BRET; NanoBRET saturation binding, membranes from NanoLuc-VEGFR2 HEK293T cells (5 μg per well); increasing fluorescent ligand with or without 100 nM corresponding unlabelled ligand; 60 min, 37°C; HeBSS/0.1% BSA pH 7.4.
In assay [4] the target is NanoLuc-VEGFR2 (Homo sapiens) (UniProt P35968). Kind of assay: NanoBRET kinetics, intact cells. The conditions noted are these: cited from earlier work.
Assay [5] concerns the target N-terminal NanoLuc-tagged VEGFR2 (wild type) (UniProt P35968). Kind of assay: FRET or BRET; NanoBRET saturation binding, wild-type NanoLuc-VEGFR2 membranes (5 μg per well), HeBSS/0.1% BSA pH 6.0 (5.8–6.2); with or without 100 nM VEGF165b; 60 min, 37°C.
Assay [6] has the same target. Kind of assay: FRET or BRET; NanoBRET saturation binding, wild-type NanoLuc-VEGFR2 membranes (5 μg per well), HeBSS/0.1% BSA pH 7.4 (matched with pH 6.0); with or without 100 nM VEGF165b; 60 min, 37°C.
For assay [7] the target is unchanged. Kind of assay: FRET or BRET; NanoBRET kinetics, NanoLuc-VEGFR2 membranes preincubated with 0.01% DMSO (30 min, 37°C); four concentrations of VEGF165b-TMR (3–20 nM), 90 min at 37°C; KD kinetic (koff/kon).
Assay [8] has the same target. Kind of assay: FRET or BRET; NanoBRET kinetics, NanoLuc-VEGFR2 membranes preincubated with 1 μM cediranib (30 min, 37°C); four concentrations of VEGF165b-TMR (3–20 nM), 90 min at 37°C; KD kinetic (koff/kon).
Assay [9] shares this target. Kind of assay: FRET or BRET; NanoBRET kinetics, wild-type NanoLuc-VEGFR2 membranes (10 μg per well), HeBSS/0.1% BSA pH 6.0 (5.8–6.2); four concentrations of VEGF165b-TMR (3–20 nM), 37°C; KD kinetic (koff/kon).
Assay [10] has the same target. Kind of assay: FRET or BRET; NanoBRET kinetics, wild-type NanoLuc-VEGFR2 membranes (10 μg per well), HeBSS/0.1% BSA pH 7.4 (matched with pH 6.0); four concentrations of VEGF165b-TMR (3–20 nM), 37°C; KD kinetic (koff/kon).
The target is the same in assay [11]. Kind of assay: FRET or BRET; NanoBRET kinetics, intact HEK293T cells stably expressing NanoLuc-VEGFR2, pretreated with 0.01% DMSO (30 min, 37°C); four concentrations of VEGF165b-TMR (3–20 nM), every 30 s for 90 min at 37°C; constants from a global association fit to the initial 20 min; KD kinetic (koff/kon).
The target is the same in assay [12]. Briefly: FRET or BRET; NanoBRET kinetics, intact HEK293T cells stably expressing NanoLuc-VEGFR2, pretreated with 1 μM cediranib (30 min, 37°C); four concentrations of VEGF165b-TMR (3–20 nM), every 30 s for 90 min at 37°C; constants from a global association fit to the initial 20 min; KD kinetic (koff/kon).
Assay [13] has the same target. Briefly: FRET or BRET; NanoBRET displacement, membranes from NanoLuc-VEGFR2 HEK293T cells (5 μg per well); five fixed concentrations of fluorescent ligand with increasing VEGF-Ax (0.03–30 nM); 60 min, 37°C; Ki by Cheng–Prusoff.
The target is the same in assay [14]. Briefly: FRET or BRET; NanoBRET time course, intact HEK293T cells transiently transfected with wild-type or tyrosine phosphorylation-deficient NanoLuc-VEGFR2; 3 or 20 nM VEGF121a-TMR; every 30 s at 37°C.
For assay [15], the target named is tyrosine phosphorylation-deficient NanoLuc-VEGFR2 (UniProt P35968). The assay is described as above.
The target is the same in assay [16]. Briefly: FRET or BRET; NanoBRET kinetics, membranes from a stable cell line expressing tyrosine phosphorylation-deficient NanoLuc-VEGFR2; four concentrations of VEGF121a-TMR (3–20 nM), 90 min at 37°C; KD kinetic (koff/kon).

Sequence of VEGF-Ax (P15692 whole entry): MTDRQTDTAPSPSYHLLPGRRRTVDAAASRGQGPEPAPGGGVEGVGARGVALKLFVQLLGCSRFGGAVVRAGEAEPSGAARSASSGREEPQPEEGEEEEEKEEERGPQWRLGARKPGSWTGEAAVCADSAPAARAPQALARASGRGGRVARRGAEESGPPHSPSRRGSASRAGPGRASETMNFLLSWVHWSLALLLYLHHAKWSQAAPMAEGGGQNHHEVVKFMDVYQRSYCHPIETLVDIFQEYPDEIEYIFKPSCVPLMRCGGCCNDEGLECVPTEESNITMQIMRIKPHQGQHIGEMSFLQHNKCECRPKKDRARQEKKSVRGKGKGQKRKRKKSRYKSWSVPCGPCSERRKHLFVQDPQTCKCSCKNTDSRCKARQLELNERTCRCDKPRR
Sequence of VEGF165a-TMR (P15692 whole entry): as above

As usually defined, the Kd is the free concentration of one partner at which half of the binding sites on the other are occupied at equilibrium, for simple one-to-one binding. In the case of “VEGF165a-TMR (from UniProt P15692-4 1-191) (ligand)”, the dissociation constant (Kd) in assay [1] was determined as 2.21 nM; in assay [2], 2.4 nM; in assay [3] it was 0.31 nM.

Consider VEGF165a-TMR (from UniProt P15692), for which the Kd in assay [4] was 6.64 nM.

Broadly, the koff is a measure of how fast the partners let go of each other. The kon is a measure of how fast the partners come together. What is called residence time is the mean lifetime of the complex, commonly the reciprocal of the off-rate. For the substance “VEGF165b-TMR (from UniProt P15692-8 1-191) (ligand)”, the equilibrium dissociation constant (Kd) worked out at 4.43 nM in assay [5]; 5.29 nM in assay [6]; 9.68 nM in assay [7]; 8 nM in assay [8]; 13.3 nM in assay [9]; 9.21 nM in [1]. The equilibrium dissociation constant (Kd) in assay [10] worked out at 10.2 nM; in assay [3], 5.55 nM; in assay [11], 19.8 nM; in assay [12], 43.6 nM. Also, the dissociation rate constant (koff) amounted to 0.000383 s⁻¹ in [7]; 0.00035 s⁻¹ in [8]; 0.000983 s⁻¹ in assay [9]; 0.000483 s⁻¹ in assay [1]; 0.000383 s⁻¹ in [10]; 0.00135 s⁻¹ in [11]. Also, the koff in [12] amounted to 0.00152 s⁻¹. For the same substance, the kon was determined as 44800 M⁻¹ s⁻¹ in assay [7]; 45700 M⁻¹ s⁻¹ in [8]; 73200 M⁻¹ s⁻¹ in [9]; 61500 M⁻¹ s⁻¹ in assay [1]; 39000 M⁻¹ s⁻¹ in [10]; 71000 M⁻¹ s⁻¹ in [11]. Also, the on-rate (kon) in assay [12] worked out at 43800 M⁻¹ s⁻¹. In addition, the residence time was 43.5 min in assay [7]; 47.6 min in [8]; 17 min in [9]; 34.5 min in assay [1]; 43.5 min in [10]; 12.3 min in assay [11]. Besides, the residence time in assay [12] was found to be 11 min. The AUC of the NanoBRET time course at 5 nM is 0.71 in assay [11] and 0.77 in assay [12]. The AUC of the NanoBRET time course at 20 nM in assay [11] came out at 1.8; in assay [12] it was 2.04.

Turning to VEGF-Ax (ligand), in assay [13], the pKi (fluorescent probe VEGF121a-TMR) amounted to 10.3, the pKi (fluorescent probe VEGF165a-TMR) is 10.2 and the pKi (fluorescent probe VEGF165b-TMR) came out at 9.96.

“VEGF121a-TMR (from UniProt P15692-9 1-147) (ligand)”: in [14], the AUC of the NanoBRET time course at 3 nM was 2.61 and the AUC of the NanoBRET time course at 20 nM is 7.28. Besides, in [15], the AUC of the NanoBRET time course at 3 nM is 3.54 and the AUC of the NanoBRET time course at 20 nM amounted to 9.79. Also, in assay [1], the equilibrium dissociation constant (Kd) was determined as 3.85 nM, the koff came to 0.000317 s⁻¹, the kon came to 85500 M⁻¹ s⁻¹ and the residence time came out at 52.6 min. In [16], this substance had a Kd of 6.85 nM, a koff of 0.000617 s⁻¹, a kon of 104000 M⁻¹ s⁻¹ and a residence time of 27 min. In assay [3], this substance came in with a Kd of 2.58 nM.
